Measurements from the Human Domainome abundance scans (Beltran et al. 2025).
± gives the uncertainty stated by the source.

B1: Lysine-specific demethylase 2B, residues 656 to 722; numbered along this chain, Q8NHM5 (parent)
chain: LPHTAVCLVCGEAGKEDTVEEEEGKFNLMLMECSICNEIIHPGCLKIKESEGVVNDELPNCWECPKC

Variants of: B1
Assay: abundance fitness (aPCA) (normalised: wild type 0, dead -1); higher = more abundant; growth selection in yeast, the domain comes from the species named
Conditions: Homo sapiens

Variant	abundance fitness
LPHTAVCLVCGEEGKEDTVEEEEGKFNLMLMECSICNEIIHPGCLKIKESEGVVNDELPNCWECPKC	0.214 ± 0.097
LPHTAVCLVCGEDGKEDTVEEEEGKFNLMLMECSICNEIIHPGCLKIKESEGVVNDELPNCWECPKC	-0.138 ± 0.15
LPHTAVCLVCGEAGLEDTVEEEEGKFNLMLMECSICNEIIHPGCLKIKESEGVVNDELPNCWECPKC	-0.154 ± 0.067
LPHTAVCLVCGEAQKEDTVEEEEGKFNLMLMECSICNEIIHPGCLKIKESEGVVNDELPNCWECPKC	-0.009 ± 0.11
LPHTAVCLVCGEAGKEDTVEEEEGKFNLMLMECSICNEIIHPGCLKIKESEGVVNDEKPNCWECPKC	0.14 ± 0.12
LPHTAVCLVCGEAGKEDTVEEEEGKFNLMLMECSICNEIIHPGCLKIKESQGVVNDELPNCWECPKC	-0.239 ± 0.18
LPHTAVCLVCGEAGKEDTVEEEEGKFNLMLMECSICNEIIHPGCLKIQESEGVVNDELPNCWECPKC	0.108 ± 0.11
LPHTAVCLVCGEAGKEDTVEEEEGKFNDMLMECSICNEIIHPGCLKIKESEGVVNDELPNCWECPKC	-0.068 ± 0.17
LPHTAVCLVCGEAGKEDTVEEEEGKFNLMLMECSIENEIIHPGCLKIKESEGVVNDELPNCWECPKC	-0.736 ± 0.14
LPHTAVCLVCGEAGKEDTVEEEEGKFNLMLMECSINNEIIHPGCLKIKESEGVVNDELPNCWECPKC	-0.707 ± 0.24
LPHTAVCLVCGEAGKEDTVEEEEGKMNLMLMECSICNEIIHPGCLKIKESEGVVNDELPNCWECPKC	0.062 ± 0.1
LPHTAVCLVCGEAGKEDTVEEEEGKFNLMLMECSICNIIIHPGCLKIKESEGVVNDELPNCWECPKC	-0.085 ± 0.13
LPHTAVCLVCGEAGKEDTVEEEEGKFNLMLMECSICNKIIHPGCLKIKESEGVVNDELPNCWECPKC	-0.206 ± 0.33
LPHTAVCLVCGEAGKEDTVEEEEGKFNLMLMGCSICNEIIHPGCLKIKESEGVVNDELPNCWECPKC	-0.063 ± 0.077
LPHTCVCLVCGEAGKEDTVEEEEGKFNLMLMECSICNEIIHPGCLKIKESEGVVNDELPNCWECPKC	0.07 ± 0.3
LPHTYVCLVCGEAGKEDTVEEEEGKFNLMLMECSICNEIIHPGCLKIKESEGVVNDELPNCWECPKC	0.625 ± 0.35
LPHTPVCLVCGEAGKEDTVEEEEGKFNLMLMECSICNEIIHPGCLKIKESEGVVNDELPNCWECPKC	0.006 ± 0.13
LPHTAVCLVCGEAGKEDTVEEEEGKFNLMLMECSICNEIIHPGCLKIKESEGVVSDELPNCWECPKC	0.087 ± 0.1
LPHTAVCLVCGEAGKEDTVWEEEGKFNLMLMECSICNEIIHPGCLKIKESEGVVNDELPNCWECPKC	-0.4 ± 0.11
LPHWAVCLVCGEAGKEDTVEEEEGKFNLMLMECSICNEIIHPGCLKIKESEGVVNDELPNCWECPKC	-0.889 ± 0.23

Variant	abundance fitness
LPHRAVCLVCGEAGKEDTVEEEEGKFNLMLMECSICNEIIHPGCLKIKESEGVVNDELPNCWECPKC	-0.979 ± 0.23
LPHTAVCLVCGEAGKEDTVEEEEGKFNLMLMECSICNEIIHPGCLSIKESEGVVNDELPNCWECPKC	0.206 ± 0.081
LPHTAVCLVCGEAGKEDTVEEEEGKFNLMLMECSICNEIIHPGCLDIKESEGVVNDELPNCWECPKC	0.224 ± 0.18
LPVTAVCLVCGEAGKEDTVEEEEGKFNLMLMECSICNEIIHPGCLKIKESEGVVNDELPNCWECPKC	0.234 ± 0.089
LPHTAVCLVCGEAGKEDTVEEEEGKFNLMLMECSICNEIIHPGCLKIKESEGPVNDELPNCWECPKC	-0.15 ± 0.095
LPHTAVCLVCGEAGKEDTVEEEEGKFNLMLMECSICNEIIHPGCLKIKESEGEVNDELPNCWECPKC	0.003 ± 0.11
LPHTAVCLVCGEAGKEDTVEEEEGKFNLMLMECSICNEIIHPGCLKIKESEGVVNDELPNCWQCPKC	-0.148 ± 0.14
LPHTAVCLVCGEAGKEDTVEEEEGKFNLMLMECSICNEIIHPGCLKIKESEGVVNDELPNCWSCPKC	-0.223 ± 0.074
LPHTAVCLVCGEAGKEDTVEEEEGKFNLMLMECSICNEIIHPGCLKIKESEGVVNDELPNCWECPWC	-0.846 ± 0.24
LPHTAVCLVCGEAGKEDTVEEEEGKFNLMLMECSICNEIIHPGCLKIKESEGVVNDELPNCWECPPC	-0.049 ± 0.16
LPHTAVCLVCGEAGKEDTVEEEEGKFNLMLMECSICNEIIHPGCLKIKESEGVVNDELPNFWECPKC	-0.325 ± 0.19
LPHTAVCLVCCEAGKEDTVEEEEGKFNLMLMECSICNEIIHPGCLKIKESEGVVNDELPNCWECPKC	-0.541 ± 0.19
LPHTAVCLVCGEAGKEDTVEEEEGWFNLMLMECSICNEIIHPGCLKIKESEGVVNDELPNCWECPKC	-0.859 ± 0.31
LPHTAVCLVCGEAGKEDTVEEEEGTFNLMLMECSICNEIIHPGCLKIKESEGVVNDELPNCWECPKC	-0.432 ± 0.17
LPHTAVCLVCGEAGKEDTVEEEEGLFNLMLMECSICNEIIHPGCLKIKESEGVVNDELPNCWECPKC	-0.441 ± 0.083
LPHTAVCLVCGEAGKEDTVEEEEGKFNLMLMECSICNEIIHPGCLKIKESEGVVNDELPNCCECPKC	-0.858 ± 0.26
HPHTAVCLVCGEAGKEDTVEEEEGKFNLMLMECSICNEIIHPGCLKIKESEGVVNDELPNCWECPKC	-0.174 ± 0.48
WPHTAVCLVCGEAGKEDTVEEEEGKFNLMLMECSICNEIIHPGCLKIKESEGVVNDELPNCWECPKC	-0.426 ± 0.12
LPHTAECLVCGEAGKEDTVEEEEGKFNLMLMECSICNEIIHPGCLKIKESEGVVNDELPNCWECPKC	-0.378 ± 0.19
LPHTAVCLVCGEAGKEGTVEEEEGKFNLMLMECSICNEIIHPGCLKIKESEGVVNDELPNCWECPKC	0.104 ± 0.091
